Measured values published in the nanobody polyreactivity screen of Harvey et al. (2022).

Assay: yeast display, Sf9 membrane polyspecificity reagent, FACS + sequencing; frameworks hold sequencing errors
Outline: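 Galactose-induced (36–48 hours) yeast carrying a synthetic nanobody display library were exposed to 10% biotinylated, detergent-solubilized Sf9 membrane reagent at 4 °C for 1 hour. FACS followed streptavidin microbead enrichment, using low and high (top ~1%) gates for expression (anti-HA) and reagent binding (streptavidin). Colony PCR, MiSeq 2 × 250 sequencing and CDR-length filtering followed. Labels for polyreactivity reflect the gate of origin.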

| Sequence | polyreactivity (PSR sort gate) |
| --- | --- |
| QVQLVESGGGLVQAGGSLRLSSAASGSTFTSYAMGWYRQAPGKERELVAAINYSGGSTYYADSVKGRFTISRDNAKNNVYLQMNILKQEDTAVYDCAADGYIRQYVTYYYWGQGTQVTVSS | low polyreactivity |
| QVQLVESGGGLVQAGGSLRLSCAASGILFRFYAMGWYRQAPGKERELVAAISSGGSTYYADSVKGRFTISRDNAKNTVYLQMNSLKPEDTAVYYCNAGRKSTLVGYVRFYYWGQGTQVTVSS | high polyreactivity |
| QVQLVESGGGLVQAGGSLRLSCAASGFTLFTNAMGWYRQAPGKERELLARISLGGSTKYADSVKGRFTISRDNAKNTVYVQMNSLKPEDTAVYYCATGYYGYRYGYWGQATQVTVSS | high polyreactivity |
| QVQIEESGGALVQEGGSLRLSRAASGRTFYYYAMGWYRQAPGKERELVAGIDFSSGSTYYADSVKGRFTISRDNAKNTVYLQMNSLKPEDTAVYYCAAKWHVRGRGARYRYDYDYWGQGTQVTVSS | low polyreactivity |
| QVQLQESGGGLVQAGGSLRKSCAASGYIFTQYGMGWYRQGPGKERKFVATISYGGNTNYADSVKGRFTISRDNAKNTVYLQLNSLKPEDTAVYSCATKSVGYRKYWSGDIYDYWGQGTQVTVSS | low polyreactivity |
| KVQLVESGGGLVQAGGSLRISCAASGITFVRNAMGWYRQAPGKERELVAAISSGGSTYYADSVKGSFTISRDNAKITVYLLMYSLKPEDNAVYFCAVLSSWRFSGYDYWGQGTQVNVSS | low polyreactivity |
| QVQLVESGGGLVQAGGSLRLSCAASGNTFSGNAMGWYRQAPGKQRELVATINSGGGSTNYADSVTGRFSISRDNAKNTVYLQMNSLKPEDTAGYYCAASAYTWRGIDSSYLTVTYDYWGQGTQVTVSS | low polyreactivity |
| QVQLVESGGGLVQAGGSLRLSCAASGRTLGPNAMGWYRQAPGKERELVAGITGRGGITYYTDSEKGRFTISRDNAKNTVYLQMNSLKPEDTAVYYCAARRYRFAGDYRMYYWGQGTQVTVSS | high polyreactivity |
| QVQLVESGGGLVQAGGSLRLSCAASGSTFYDYAMGWYRQAPGKERELVAAINWSSDTTYYADSVKGRFTISRDNAKNTVYLQMNSLKPEDTAVYYCATDSAYRGYDYWGQGTQVTVSS | low polyreactivity |
| PVQLVVSGGGLVQAGGSLRLSWAASGLIFRYYAMGWYRQAPGKERELVATIRGGGSTYYADSVKGRFTISRDKAKNTVTLQMNSLKPEATAVDYSAADPYSYGARGARGDYWGQGTQGTVSS | low polyreactivity |
| QVQLVESGGGLVQAGGSLRLSCAASGRIFAPYAMGWYRQAPGQEREFVATITVSGARTRYADSVKGRFTISRDNAKNTVYLQMNSLKPEETAVYYCAASKFYSWRATRKVSYDYWGQGTQVTVSS | high polyreactivity |
| QVQLVESGGGLVQAGGSLRLICAASGRTFVYNTMGWYRQAPGKERELVAAITDRGTSTYYADSVKGRFTISRDNAKNPVYLLLNSLNPEDTAVYYWAKDWLVTEFDYWGQGTQVTVSS | low polyreactivity |
| QVQLVESGGGIVQAGGILRLTGAASVITNTSYAMGWYRQAPGKERELVAAISSSGVRTYYADSVKGRFTISRDNAKNTVYLQLNSLKPEDTAVYYCATRRRVLFGYDYWGQGTQVTVSS | high polyreactivity |
| QVQLVESGGGLVQAGGSLRLSCAASGSIFVYNDMGWYRQAPGKERELVAGIDWSGDRTYADSVKGRFTISRDNAKNTVYLQMNSLKPEDTAVYYCNADEWRWDEIIPYAVDYWGQGTQVTVSS | low polyreactivity |
| QVQLQESGGGLVQAGGSLRLSCASSGTISQEDWKGWYRQAPGKEREFVAAIGLGSNTNYADSLKGRFTISRDNAKNTVYLQMNSLKPEDTAVYYCAVSVWQYSDHVYRGQGTQVTVSS | low polyreactivity |
| QVQLVESGGGLVQAGGSLRLSCAASGRNFWFNAMGWYRQAPGKVRELVAAISGGSTNYADSVKGRFTISRDNAKNHVYLQMNSLKPEDTAVYYCAARYLLRYNWGQGTQVTVSS | high polyreactivity |
| QVQLVESGGGLVQAGGSLRLSCAASGRTSVKYAMGWYRQAPGKERELVAAITYRGSSTYYADSVKGRFTISRDNAKNTVYLQMNSLKPEDTAVYYCAARPPLSGRYGYYYWGQGTQVTVSS | high polyreactivity |
| QVQLVESGGGLVQAGGSLRLSCAASGFIFHGYTMGWYRQAPGKEMDMVARISFTGGSTYYADSVKGRFTISRDNAKNTVYLQMNSLKPEDTAVYYCAATYSSYWARYYYWGQGTQVTVSS | high polyreactivity |
| QVQLVESGGGLVQAGGSLRLSCAASGRIFGSYAMGWYRPAPGKERELVAGIRSVGSTNYADSVKGRFTISRDNAKNTVYLQMNSLKPEDTAVYYCAARLWHLSYAGQGGDYWGQGTQVTVSS | low polyreactivity |
| QLQLVESGRGLVQAGGSLRLSCAASGITFPGYAMGWYRQAPGKERELVAAIDWSGDGTYYADSVKGRFTISRENAKNTVYFQMNSLKPEDTAVFYCAKDNYPNHSTVLAVIYDNWGQGTQVTVSS | low polyreactivity |
| QVQLVESGGGLVQAGGSLRLSCAASGITFAEYAMGWYRQAPGKERELVAAINGGGGSTYYADSVKGRFTISRDNAKNTVYLQMNSLKPEDTAVYYCAARYRGWSGGYDYWGQGTQVTVSS | high polyreactivity |
| QVQLVESGGGLVQAGGSLRLSCAASGFIFYSYDMGWYRQAPGKERELVAAIDSRGVNTYFADSVKGRFTISRDNAKNTVYLQMNSLKPEDTAVYYCNVDAITWWDWEDFDSWGQGTQVTVSS | low polyreactivity |

| Sequence | polyreactivity (PSR sort gate) |
| --- | --- |
| QVQLVESGGGLVQAGGSLRLSCAASGFIFADYDMGWYRQAPGKERELVDAISWSGGTTYYADSVKGRFTISRDNAKHTVYLQMNSLKPEDTAVYYCAAYWWAVYSVVTGARYVYWGQGTQVTLSS | high polyreactivity |
| QVQHVESGGGLVQAGGSLRLSCAASGRIFGRNNMGWYRQAPGKERELVAAISSSGGSTRYADSVKGRFTISRDNAKNTVYLQMNSLKPEDTGVYYCAARRAYYYEGGYDYWGQGTQVTVSS | high polyreactivity |
| QVQLVESGGGLVQAGGSLRLSCAASGLIFKNNAMGWYRQAPGKERELVAAIDSIGGSTYYADSVKGRFTISRDNAKNTVYLQMNSLKPEDTAVYYCATDYYFYPHSQYDYWGQGTQVTVSS | low polyreactivity |
| QVQLVESGGALVQAGGSLRLSCAASGRTFNRYGMGRYRQAPGEERELVASITSGGSTNYADSVKGRFTISRDNAKNTVFLQMNSLKPEDTAVYYCAKRSIGRYPRTYDYWGQGTKVTVSS | low polyreactivity |
| QVQLVESGGGLVQAGGSLRLSCAASGFTFYNNAMGWYRPAPGKERELVAVITSNGGRTYYADSVKGRFTISRDNAKNTVYLQMNSVKPEDTAVYYCAKDYKALYLYHYRISGGDVDYWGQGTQVTVSS | low polyreactivity |
| QVQLVESGGVLVQAGGSLRLSCAASGRTFDRYAMGWYRQAPGKERELVAAITWSGGRTYYADSVKGRFTISRDNAKNTVYLHMNSLKPEDTAVYYCAADNSYRGYHSPYDYWGQGTQVTVSS | low polyreactivity |
| QVQLVESGGGLVQAGGSLRLSCAASGRIFSFNAMGWYRQAPGKERELVAAISWSTGSTFYADSVKGRFTISRDNAKNTVYLQMNSLKPEDTAVYYCATGFPHPKRNVNRRNYWGQGTQVTVSS | high polyreactivity |
| QVQLVESGGGLVQAGGSLRLSCAASGRTFNRYAMGWYRQAPGKERELVAAISGGGSSTSYADSVKGRFTISRDNAKNTVYLQMNSLKPEDTAVYYCAAKYGALRYYNMYYWGQGTQVTVSS | low polyreactivity |
| QVQLVESGGGLVQAGGSLRLSCAASGSIFIINAMGWYRQAPGKERELVAAINNGVNTYYADSVKGRFTISRDNAKNTVYLQMNSLKPEDTAVYYCAADPYFYYYGYDYWGQGTQVTVSS | low polyreactivity |
| QVQLVESGGGLVQAGGSLRLSCAASGRIFTRNAMGWYRQAPGKERELVAAIRWSGDSTYYADSVKGRFTISRDNAKNTVYLQMNSLKPEDTAVYYCAADRQRSHRVGTKGHRVGYWGQGTQVTVSS | high polyreactivity |
| QDQLVESGGGLVQAGGTLRLSCAASGRIFKSYAMGWYRQAPGKEREVVASISYTGGSTYYADSVKGRFTISRDNAKNTVYLEMNSLNPEDTAVYYFAAKRVRSAGSYGYWGQVTQVTVSS | low polyreactivity |
| QVQLVESAGGLVQAGGSLRLSCAASGLIFYSYAMGWYRQAPGKERELVASITTRGSSTYYADSVKGRFTISRDNAKNTVYLQMNSLKPEDTAVYYCAADRLYYRYPPDTGYGYWGQGTQVTVSS | low polyreactivity |
| QVQLVESGGGLFQAGGSLRLSCAASGRIFGDNGMGWYRQAPGKERELVTYADSVKGRFTISRDNAKNTVYLQMNSLKPEDTAVYYCNKDPPRLSGLDENYWGQGTQVTVSS | low polyreactivity |
| QVQLVESRGGLVQAGGSLRLSCAASGIIFSKNAMGWYRQAPGKERELVATINRSGGSTYADSVKGRFTISRDNAKNTVYLQMNSLKPEDTAVYYCAKRASPFWRGYDSCGQGTQVTVSS | high polyreactivity |
| QVQLVESGGGLVQAGGSLRLSCAASGLTFGYNAMGWYRQAPGKERELVAAITYGGGRTYYADSVKGRFTISRDNAMNTVYLQMNSLKPEDPAVYYCNVVWKAYAEYDYWGQGTQVTVSS | high polyreactivity |
| QVQLVESGGGLVQAGGSLRLSCAASGRIFRYYAMGWYRQAPGKERELVAGITIGGSTNYADSVKGRFTISRDNAKNTVYLLMISLKPEDTAVYYCAAVQHDENEYWGQGTQVTVSS | low polyreactivity |
| QVQLVESGGGLDQAGGSLRLSCAASGRTFTRYALCWYRQAPGNVRELVATMTRGARTYYADSVKGRFTISRDNAKNTVYLQMNSLKPVDTAVYYCNAVYSFLSPDQMGYWGQGTQVTVSS | high polyreactivity |
| QVQLVESGGGLVQAGGSLRLSCAASGSNFVYNAMGRNRQAPGKERELVAAISSGGRTNYADSVKGRFTISRDNANNTVYLQMNSLKPEDTAVYYCADEGLLWWSGYYYWGQGTQVTVYS | high polyreactivity |
| QVQLVESGGGLVQAGGSLRLSCAASGRTFRFNAMGWYRQAPGKERELVAAISSSGDSTYYADSVKGRFTISRDNAKNTVYLQMNSLKPEDTAVYYCAVRSRTPRAYYYWGQGTQVTVSS | low polyreactivity |
| QVQLVESGGGLVQAGGSLRLSCAASGSIFPDNVMGWYRQAPGKEREFVAAISWTDGSTRYADSVKGRFTISRDNAKNTVYLQMNSLKPEDTAVYYCNVGTRASYQEGDYWGQGTQVTVSS | low polyreactivity |
| HVQLVESGGGLVQAGGSLRLSCAASGSTFGSYALGWYRQAPGKERELVADISSRGASTYNADSVKGRFTISRDNAKNTVYLQMNSLKPEDTAVSYCATDKLYGRTVRMDYWGQGTQVTVSS | low polyreactivity |
